# Laboratory results as given in patent US20250002593A1 (INMAGENE PTE, published 2025).
# How the values were obtained:
# [1] = molecular target: T1, Recombinant hIL1R1 protein (human, UniProt P14778 18-332, limits assumed); assay: ELISA on coated recombinant hIL1R1 protein, detection with HRP anti-hIgG
# T1 sequence (looked up): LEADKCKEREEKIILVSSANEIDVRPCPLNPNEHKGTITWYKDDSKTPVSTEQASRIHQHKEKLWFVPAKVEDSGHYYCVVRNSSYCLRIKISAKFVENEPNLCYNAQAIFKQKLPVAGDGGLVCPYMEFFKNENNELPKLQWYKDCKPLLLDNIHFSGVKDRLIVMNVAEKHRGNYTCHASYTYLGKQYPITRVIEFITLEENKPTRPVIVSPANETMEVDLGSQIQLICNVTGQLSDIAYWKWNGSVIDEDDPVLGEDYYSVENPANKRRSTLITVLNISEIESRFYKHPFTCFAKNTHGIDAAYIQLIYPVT
# [2] = molecular target: T2, Recombinant hIL-36R protein (Acrobio, Cat #IL2-H52H6) (human, UniProt Q9HB29 20-335); assay: SPR (Biacore T200, 25 C), antibody captured by Fc, hIL-36R analyte
# T2 construct: Bought soluble protein; also called recombinant human IL-36R protein
# T2 sequence: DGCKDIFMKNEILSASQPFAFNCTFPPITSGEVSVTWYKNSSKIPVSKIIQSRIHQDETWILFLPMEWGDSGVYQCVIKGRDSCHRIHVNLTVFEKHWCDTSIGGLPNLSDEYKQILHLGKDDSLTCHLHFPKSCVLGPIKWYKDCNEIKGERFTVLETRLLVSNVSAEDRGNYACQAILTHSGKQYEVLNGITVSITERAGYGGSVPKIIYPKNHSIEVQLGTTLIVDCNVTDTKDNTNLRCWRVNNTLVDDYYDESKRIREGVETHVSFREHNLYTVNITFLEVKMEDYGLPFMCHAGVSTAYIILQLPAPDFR
# membrane hIL-36R [3] = molecular target: T3, membrane hIL-36R (human, UniProt Q9HB29 20-575); assay: cell-based or functional assay
# T3 sequence: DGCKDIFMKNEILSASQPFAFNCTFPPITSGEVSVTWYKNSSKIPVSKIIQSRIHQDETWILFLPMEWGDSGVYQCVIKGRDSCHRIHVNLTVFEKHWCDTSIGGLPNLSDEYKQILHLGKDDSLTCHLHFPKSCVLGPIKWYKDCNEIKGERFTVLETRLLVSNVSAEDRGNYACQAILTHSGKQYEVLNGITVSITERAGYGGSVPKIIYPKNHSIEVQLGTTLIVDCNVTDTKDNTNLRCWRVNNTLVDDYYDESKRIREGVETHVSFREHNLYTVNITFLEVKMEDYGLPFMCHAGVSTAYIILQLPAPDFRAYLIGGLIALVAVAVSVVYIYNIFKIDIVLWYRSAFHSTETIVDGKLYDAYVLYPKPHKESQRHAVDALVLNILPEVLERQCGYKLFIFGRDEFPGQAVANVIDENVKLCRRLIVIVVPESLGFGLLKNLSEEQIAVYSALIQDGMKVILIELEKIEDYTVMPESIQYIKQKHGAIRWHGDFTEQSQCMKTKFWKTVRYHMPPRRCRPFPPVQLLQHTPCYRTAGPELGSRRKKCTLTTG
# membrane hIL-36R [4] = molecular target: T3, membrane hIL-36R; assay: cell-based or functional assay; remark: listed apart in the source
# [5] = molecular target: T4, mouse IL-36R (R&D, Cat #2354-RP) (mouse, UniProt Q9ERS7 22-338, limits assumed); assay: BLI, antibody on Protein A sensor, recombinant mouse IL-36R as analyte
# T4 construct: Bought; also called recombinant mouse IL-36R protein
# T4 sequence (looked up): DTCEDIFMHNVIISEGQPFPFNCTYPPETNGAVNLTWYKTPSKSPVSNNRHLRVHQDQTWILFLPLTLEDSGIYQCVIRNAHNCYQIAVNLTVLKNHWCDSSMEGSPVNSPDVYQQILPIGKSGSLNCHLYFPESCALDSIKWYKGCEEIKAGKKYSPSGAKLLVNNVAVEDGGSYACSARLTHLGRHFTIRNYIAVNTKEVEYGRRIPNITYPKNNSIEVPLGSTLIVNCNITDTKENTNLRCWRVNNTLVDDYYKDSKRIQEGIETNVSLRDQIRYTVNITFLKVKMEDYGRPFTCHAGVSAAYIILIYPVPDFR
# membrane hIL-36R [6] = molecular target: T3, membrane hIL-36R; assay: cell-based or functional assay; remark: listed apart in the source
# membrane hIL-36R [7] = molecular target: T3, membrane hIL-36R; assay: cell-based or functional assay; remark: listed apart in the source
# membrane hIL-36R [8] = molecular target: T3, membrane hIL-36R; assay: cell-based or functional assay; remark: listed apart in the source
# recombinant hIL-36R-his = molecular target: T5, recombinant hIL-36R-his (human, UniProt Q9HB29 20-337); assay: ELISA on coated recombinant hIL36R protein (1 µg/ml), detection with HRP anti-hIgG; unit taken from the x axis Ab(µg/mL)
# T5 construct: Residues 1-337 (extracellular domain) are stated for the IL-36R-his used as immunogen; The range includes the signal peptide; no cleavage site is stated; also called recombinant hIL36R protein; recombinant human IL-36R-his protein; not shown: His tag
# T5 sequence: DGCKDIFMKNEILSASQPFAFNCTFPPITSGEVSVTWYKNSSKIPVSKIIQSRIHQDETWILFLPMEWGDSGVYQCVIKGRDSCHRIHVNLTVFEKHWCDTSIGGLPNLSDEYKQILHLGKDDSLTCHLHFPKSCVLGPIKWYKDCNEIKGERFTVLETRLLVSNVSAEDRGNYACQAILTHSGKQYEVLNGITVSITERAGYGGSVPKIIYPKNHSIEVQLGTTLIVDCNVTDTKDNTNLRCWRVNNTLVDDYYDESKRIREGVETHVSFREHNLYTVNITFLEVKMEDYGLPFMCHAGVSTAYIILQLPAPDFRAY
# membrane hIL-36R [9] = molecular target: T3, membrane hIL-36R; assay: cell-based or functional assay; remark: listed apart in the source
# membrane hIL-36R [10] = molecular target: T3, membrane hIL-36R; assay: cell-based or functional assay; remark: listed apart in the source
# membrane hIL-36R [11] = molecular target: T3, membrane hIL-36R; assay: flow cytometry on HEK293 cells transfected with pcDNA3.1-hIL36R, FITC anti-hIgG, MFI (median); unit taken from the x axis
# membrane hIL-36R [12] = molecular target: T3, membrane hIL-36R; assay: cell-based or functional assay; remark: listed apart in the source
# [13] = molecular target: T6, recombinant hFcRn-his/B2M heterodimer protein (Acrobio, Cat #FCM-H82W4) (human, UniProt P55899 24-297; P61769 21-119); assay: BLI (Gator) at pH 6.0, hFcRn-his/B2M on anti-his sensor, antibody analyte
# T6 construct: Bought heterodimer
# T6 sequence (P55899 24-297 limits assumed, chain 1 of 2): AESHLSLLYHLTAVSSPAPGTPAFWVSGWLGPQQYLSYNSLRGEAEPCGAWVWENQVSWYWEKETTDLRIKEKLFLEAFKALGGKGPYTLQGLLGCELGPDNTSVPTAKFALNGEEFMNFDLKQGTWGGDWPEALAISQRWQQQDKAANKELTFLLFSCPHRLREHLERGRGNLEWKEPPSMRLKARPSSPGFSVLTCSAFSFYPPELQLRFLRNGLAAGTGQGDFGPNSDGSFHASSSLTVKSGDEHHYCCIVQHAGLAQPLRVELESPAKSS
# T6 sequence (P61769 21-119 limits assumed, chain 2 of 2): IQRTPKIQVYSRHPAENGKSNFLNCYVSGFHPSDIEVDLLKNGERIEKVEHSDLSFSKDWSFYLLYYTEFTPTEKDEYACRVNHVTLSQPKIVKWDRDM
# [14] = molecular target: T6, recombinant hFcRn-his/B2M heterodimer …; assay: as above; remark: listed apart in the source
binder,measurement,setting,value
"BI655130 (antibody, V domains shown, also called benchmark antibody) VH: QVQLVQSGAEVKKPGASVKVSCKASGYSFTSSWIHWVKQAPGQGLEWMGEINPGNVRTNYNENFRNKVTMTVDTSISTAYMELSRLRSDDTAVYYCTVVFYGEPYFPYWGQGTLVTVSS VL: QIVLTQSPGTLSLSPGERATMTCTASSSVSSSYFHWYQQKPGQAPRLWIYRTSRLASGVPDRFSGSGSGTDFTLTISRLEPEDAATYYCHQFHRSPLTFGAGTKLEIK",binding result,[1],no binding (tested: 1 µg/mL)
same,Kd,[2],0.935 nM
same,koff,[2],3.66e-05 s⁻¹
same,kon,[2],39200 M⁻¹ s⁻¹
same,"IC50, inhibition of IL-36β induced IL-6 release in primary human epithelial keratinocytes (HEK cells) [panel IL-6]",membrane hIL-36R [3],0.0229 µg/mL
same,"IC50, inhibition of IL-36β induced IL-8 release in primary human epithelial keratinocytes (HEK cells) [panel IL-8]",membrane hIL-36R [3],0.0293 µg/mL
same,"IC50, inhibition of IL-36β induced TNF-α release in primary human epithelial keratinocytes (HEK cells) [panel TNF-α]",membrane hIL-36R [3],0.0107 µg/mL
same,"IC50, inhibition of IL-36α induced IL-8 release in primary human dermal fibroblast (HDF) cells (IL-8 ELISA, OD450)",membrane hIL-36R [4],0.00361 µg/mL
same,binding result,[5],no binding (tested: up to 100 nM IL-36R)
same,"IC50, inhibition of IL-36γ induced IL-6 release in primary human epithelial keratinocytes (HEK cells) [panel IL-6]",membrane hIL-36R [6],0.0138 µg/mL
same,"IC50, inhibition of IL-36γ induced IL-8 release in primary human epithelial keratinocytes (HEK cells) [panel IL-8]",membrane hIL-36R [6],0.0077 µg/mL
same,"IC50, inhibition of IL-36γ induced TNF-α release in primary human epithelial keratinocytes (HEK cells) [panel TNF-α]",membrane hIL-36R [6],0.00575 µg/mL
same,"IC50, IL-36R reporter assay: inhibition of ligand induced luminescence in Jurkat-IL36R-IL1Racp-NFkB-luc cells (printed BI 655130)",membrane hIL-36R [7],0.0217 µg/mL
same,"IC50, inhibition of IL-36α induced IL-6 release in primary human epithelial keratinocytes (HEK cells) [panel IL-6]",membrane hIL-36R [8],0.0982 µg/mL
same,"IC50, inhibition of IL-36α induced IL-8 release in primary human epithelial keratinocytes (HEK cells) [panel IL-8]",membrane hIL-36R [8],0.0684 µg/mL
same,"IC50, inhibition of IL-36α induced TNF-α release in primary human epithelial keratinocytes (HEK cells) [panel TNF-α]",membrane hIL-36R [8],0.027 µg/mL
same,EC50,recombinant hIL-36R-his,0.0111 µg/mL
same,"IC50, inhibition of IL-36α induced IL-8 release in A431 cells (IL-8 ELISA, OD450) [panel IL-36α]",membrane hIL-36R [9],0.0955 µg/mL
same,"IC50, inhibition of IL-36β induced IL-8 release in A431 cells (IL-8 ELISA, OD450) [panel IL-36β]",membrane hIL-36R [9],0.0532 µg/mL
same,"IC50, inhibition of IL-36γ induced IL-8 release in A431 cells (IL-8 ELISA, OD450) [panel IL-36γ]",membrane hIL-36R [9],0.0065 µg/mL
same,"IC50, IL-36R reporter assay: inhibition of ligand induced luminescence in Jurkat-IL36R-IL1Racp-NFkB-luc cells",membrane hIL-36R [10],0.0133 µg/mL
same,EC50,membrane hIL-36R [11],0.0875 µg/mL
same,"IC50, IL-36R reporter assay: inhibition of IL-36α induced luminescence in Jurkat-IL36R-IL1Racp-NFkB-luc cells",membrane hIL-36R [12],0.057 nM
"5F7-2a8-QA (antibody, human IgG4 S228P, kappa, 5F7-2a8 with T307Q/N434A in the IgG4 (S228P) Fc; also called 5F7-QA) heavy: EVQLVESGGGLVKPGGSLRLSCAASGFAFGDYYMNWVRQAPGKGLEWVALIRNKAAGYTIYYSAPVKGRFTISRDDSKSTLYLQMNSLKTEDTAVYYCVRDMTIYDGYYVDYALDYWGQGTLVTVSSASTKGPSVFPLAPCSRSTSESTAALGCLVKDYFPEPVTVSWNSGALTSGVHTFPAVLQSSGLYSLSSVVTVPSSSLGTKTYTCNVDHKPSNTKVDKRVESKYGPPCPPCPAPEFLGGPSVFLFPPKPKDTLMISRTPEVTCVVVDVSQEDPEVQFNWYVDGVEVHNAKTKPREEQFNSTYRVVSVLQVLHQDWLNGKEYKCKVSNKGLPSSIEKTISKAKGQPREPQVYTLPPSQEEMTKNQVSLTCLVKGFYPSDIAVEWESNGQPENNYKTTPPVLDSDGSFFLYSRLTVDKSRWQEGNVFSCSVMHEALHAHYTQKSLSLSLGK light: DIVMTQSPSSVSASVGDRVTITCRASRNINIWLSWYQQKPGKAPKLFIYKASNLHTGVPSRFSGSGSGTDFTLTISSLQPEDFATYYCLQSQSYPLTFGQGTKLEIKRTVAAPSVFIFPPSDEQLKSGTASVVCLLNNFYPREAKVQWKVDNALQSGNSQESVTEQDSKDSTYSLSSTLTLSKADYEKHKVYACEVTHQGLSSPVTKSFNRGEC",Kd,[13],13.7 nM
same,koff,[13],0.00398 s⁻¹
same,kon,[13],290000 M⁻¹ s⁻¹
same,fold increase of binding affinity against 5F7-2a8-WT,[14],~10 fold
"5F7-2a8-YTE (antibody, human IgG4 S228P, kappa, 5F7-2a8 with M252Y/S254T/T256E in the IgG4 (S228P) Fc; also called 5F7-YTE) heavy: EVQLVESGGGLVKPGGSLRLSCAASGFAFGDYYMNWVRQAPGKGLEWVALIRNKAAGYTIYYSAPVKGRFTISRDDSKSTLYLQMNSLKTEDTAVYYCVRDMTIYDGYYVDYALDYWGQGTLVTVSSASTKGPSVFPLAPCSRSTSESTAALGCLVKDYFPEPVTVSWNSGALTSGVHTFPAVLQSSGLYSLSSVVTVPSSSLGTKTYTCNVDHKPSNTKVDKRVESKYGPPCPPCPAPEFLGGPSVFLFPPKPKDTLYITREPEVTCVVVDVSQEDPEVQFNWYVDGVEVHNAKTKPREEQFNSTYRVVSVLTVLHQDWLNGKEYKCKVSNKGLPSSIEKTISKAKGQPREPQVYTLPPSQEEMTKNQVSLTCLVKGFYPSDIAVEWESNGQPENNYKTTPPVLDSDGSFFLYSRLTVDKSRWQEGNVFSCSVMHEALHNHYTQKSLSLSLGK light: DIVMTQSPSSVSASVGDRVTITCRASRNINIWLSWYQQKPGKAPKLFIYKASNLHTGVPSRFSGSGSGTDFTLTISSLQPEDFATYYCLQSQSYPLTFGQGTKLEIKRTVAAPSVFIFPPSDEQLKSGTASVVCLLNNFYPREAKVQWKVDNALQSGNSQESVTEQDSKDSTYSLSSTLTLSKADYEKHKVYACEVTHQGLSSPVTKSFNRGEC",Kd,[13],15.4 nM
same,koff,[13],0.00277 s⁻¹
same,kon,[13],180000 M⁻¹ s⁻¹
same,fold increase of binding affinity against 5F7-2a8-WT,[14],~10 fold
